T1: rLac2 (full-length recombinant laccase-2) (Manduca sexta, UniProt Q8I8Y0)
T1 sequence (Q8I8Y0 24-760): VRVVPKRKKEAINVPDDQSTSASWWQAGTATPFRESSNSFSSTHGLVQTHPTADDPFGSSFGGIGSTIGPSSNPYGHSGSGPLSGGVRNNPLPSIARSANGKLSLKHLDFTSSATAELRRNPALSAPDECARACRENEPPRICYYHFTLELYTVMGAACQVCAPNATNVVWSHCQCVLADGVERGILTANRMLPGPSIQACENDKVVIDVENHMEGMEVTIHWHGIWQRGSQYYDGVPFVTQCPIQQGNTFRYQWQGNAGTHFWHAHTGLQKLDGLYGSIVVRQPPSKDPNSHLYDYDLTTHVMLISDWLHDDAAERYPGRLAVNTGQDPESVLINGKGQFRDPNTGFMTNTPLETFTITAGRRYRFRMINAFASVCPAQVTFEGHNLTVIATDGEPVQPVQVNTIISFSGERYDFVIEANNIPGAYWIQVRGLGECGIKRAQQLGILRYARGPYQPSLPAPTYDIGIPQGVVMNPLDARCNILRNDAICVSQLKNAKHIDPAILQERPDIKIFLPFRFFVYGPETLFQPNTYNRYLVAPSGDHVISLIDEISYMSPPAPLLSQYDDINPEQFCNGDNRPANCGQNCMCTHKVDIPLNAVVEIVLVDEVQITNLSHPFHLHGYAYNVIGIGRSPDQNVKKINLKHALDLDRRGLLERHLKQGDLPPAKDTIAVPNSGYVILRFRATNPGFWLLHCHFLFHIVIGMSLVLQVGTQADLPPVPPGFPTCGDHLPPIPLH

T2: cLac2 (endogenous cuticular laccase-2) (Manduca sexta, UniProt Q8I8Y0)
T2 sequence (Q8I8Y0 142-760): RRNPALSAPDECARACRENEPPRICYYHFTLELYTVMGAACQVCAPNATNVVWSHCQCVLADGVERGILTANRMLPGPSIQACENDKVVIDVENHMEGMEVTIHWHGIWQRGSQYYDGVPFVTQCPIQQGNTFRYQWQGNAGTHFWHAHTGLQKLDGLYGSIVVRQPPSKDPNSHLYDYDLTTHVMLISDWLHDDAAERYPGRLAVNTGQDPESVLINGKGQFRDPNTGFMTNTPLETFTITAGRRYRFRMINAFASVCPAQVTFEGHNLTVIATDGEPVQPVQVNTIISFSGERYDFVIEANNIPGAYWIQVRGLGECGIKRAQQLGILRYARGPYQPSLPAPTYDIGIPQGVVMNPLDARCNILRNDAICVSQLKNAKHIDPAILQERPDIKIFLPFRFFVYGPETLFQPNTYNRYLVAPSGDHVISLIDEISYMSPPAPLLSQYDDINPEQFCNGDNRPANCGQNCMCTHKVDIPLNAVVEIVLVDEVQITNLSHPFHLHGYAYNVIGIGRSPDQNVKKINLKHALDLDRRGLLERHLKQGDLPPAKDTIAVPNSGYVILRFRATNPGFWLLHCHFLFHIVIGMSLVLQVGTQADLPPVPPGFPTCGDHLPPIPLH


Tests used:
[1] = molecular target: T1, rLac2 (full-length recombinant laccase-2); test: spectrophotometric, quinone formation at […] nm; assay type: biochemical; conditions: substrate inhibition (uncompetitive) constant; 100 mM sodium citrate pH 5; air
[2] = molecular target: T2, cLac2 (endogenous cuticular laccase-2); test: spectrophotometric, quinone formation at […] nm; assay type: biochemical; conditions: substrate inhibition (uncompetitive) constant; 100 mM sodium citrate pH 5; air
purified protein [3] = substrate: CC(=O)NCCc1ccc(O)c(O)c1; test: purified protein; assay type: biochemical, Manduca sexta; conditions: 100 mM sodium citrate pH 5, air
purified protein [4] = substrate: CCn1c(=NN=c2sc3cc(S(=O)(=O)O)ccc3n2CC)sc2cc(S(=O)(=O)O)ccc21; test: purified protein; assay type: biochemical, Manduca sexta; conditions: 100 mM sodium citrate pH 5, air, data not shown

Ksi [1]	Ksi [2]	Molecule	Km (purified protein [3])	Vmax (purified protein [3])	kcat (purified protein [3])	kcat/Km (purified protein [3])	Km (purified protein [4])	kcat (purified protein [4])
6.7 ± 1.4 mM	9.7 ± 1.3 mM	NCCC(=O)NCCc1ccc(O)c(O)c1 [NBAD]	–	–	–	–	–	–
–	–	rLac2 (full-length recombinant laccase-2) (Manduca sexta) (protein) VRVVPKRKKEAINVPDDQSTSASWWQAGTATPFRESSNSFSSTHGLVQTHPTADDPFGSSFGGIGSTIGPSSNPYGHSGSGPLSGGVRNNPLPSIARSANGKLSLKHLDFTSSATAELRRNPALSAPDECARACRENEPPRICYYHFTLELYTVMGAACQVCAPNATNVVWSHCQCVLADGVERGILTANRMLPGPSIQACENDKVVIDVENHMEGMEVTIHWHGIWQRGSQYYDGVPFVTQCPIQQGNTFRYQWQGNAGTHFWHAHTGLQKLDGLYGSIVVRQPPSKDPNSHLYDYDLTTHVMLISDWLHDDAAERYPGRLAVNTGQDPESVLINGKGQFRDPNTGFMTNTPLETFTITAGRRYRFRMINAFASVCPAQVTFEGHNLTVIATDGEPVQPVQVNTIISFSGERYDFVIEANNIPGAYWIQVRGLGECGIKRAQQLGILRYARGPYQPSLPAPTYDIGIPQGVVMNPLDARCNILRNDAICVSQLKNAKHIDPAILQERPDIKIFLPFRFFVYGPETLFQPNTYNRYLVAPSGDHVISLIDEISYMSPPAPLLSQYDDINPEQFCNGDNRPANCGQNCMCTHKVDIPLNAVVEIVLVDEVQITNLSHPFHLHGYAYNVIGIGRSPDQNVKKINLKHALDLDRRGLLERHLKQGDLPPAKDTIAVPNSGYVILRFRATNPGFWLLHCHFLFHIVIGMSLVLQVGTQADLPPVPPGFPTCGDHLPPIPLH	460 ± 50 µM	3.1 ± 0.1 µM/min	1.67 ± 0.05 s⁻¹	3670 M⁻¹ s⁻¹	–	–
–	–	cLac2 (endogenous cuticular laccase-2) (Manduca sexta) (protein) RRNPALSAPDECARACRENEPPRICYYHFTLELYTVMGAACQVCAPNATNVVWSHCQCVLADGVERGILTANRMLPGPSIQACENDKVVIDVENHMEGMEVTIHWHGIWQRGSQYYDGVPFVTQCPIQQGNTFRYQWQGNAGTHFWHAHTGLQKLDGLYGSIVVRQPPSKDPNSHLYDYDLTTHVMLISDWLHDDAAERYPGRLAVNTGQDPESVLINGKGQFRDPNTGFMTNTPLETFTITAGRRYRFRMINAFASVCPAQVTFEGHNLTVIATDGEPVQPVQVNTIISFSGERYDFVIEANNIPGAYWIQVRGLGECGIKRAQQLGILRYARGPYQPSLPAPTYDIGIPQGVVMNPLDARCNILRNDAICVSQLKNAKHIDPAILQERPDIKIFLPFRFFVYGPETLFQPNTYNRYLVAPSGDHVISLIDEISYMSPPAPLLSQYDDINPEQFCNGDNRPANCGQNCMCTHKVDIPLNAVVEIVLVDEVQITNLSHPFHLHGYAYNVIGIGRSPDQNVKKINLKHALDLDRRGLLERHLKQGDLPPAKDTIAVPNSGYVILRFRATNPGFWLLHCHFLFHIVIGMSLVLQVGTQADLPPVPPGFPTCGDHLPPIPLH	630 ± 50 µM	10.5 ± 0.25 µM/min	4.83 ± 0.117 s⁻¹	7670 M⁻¹ s⁻¹	1500 µM	7.67 s⁻¹
